Measured values published in paper doi:10.1101/2022.07.24.501275.

Key:
Assay in all cases: SPR
[1] = target: 14A Fab G32R (mouse | human)
[2] = target: 16A Fab R32G (mouse | human)
[3] = target: 16A Fab W34F (mouse | human)

Row | Kd [1] [nM] | KD(peptide)/KD(GalNAc-S) [2] [fold] | KD(peptide)/KD(GalNAc-T) [3] [fold] | Substance
1 | 128 | 1.9 |  | MUC1 glycopeptide RPAPGS(Tn)TAPPAHG
2 |  |  | 2.8 | MUC1 glycopeptide RPAPGST(Tn)APPAHG
